The source of these data is PMC9223271 (Nature Communications, 2022).

For the assay, the target named is T1, SARS-CoV-2 RBD protein (recombinant, WT) (SARS-CoV-2 wild type (Wuhan-Hu-1 …, UniProt P0DTC2)).
T1 construct: also called WT RBD
Kind of assay: SPR. Conditions: both partners purified.

B1: S2E12 (antibody, V domains shown)
VH: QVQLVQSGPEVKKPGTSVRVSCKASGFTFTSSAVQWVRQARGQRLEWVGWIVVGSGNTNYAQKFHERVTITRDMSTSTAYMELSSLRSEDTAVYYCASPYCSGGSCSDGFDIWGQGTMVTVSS
VL: DIVLTQTPGTLSLSPGERATLSCRASQSVSSSYLAWYQQKPGQAPRLLIYGASSRATGIPDRFSGSGSGTDFTLTISRLEPEDFAVYYCQQYVGLTGWTFGQGTKVEIK
notes: source: generated by the authors
On to B1, for which the binding result is listed as “binds”.

B2: ZCB11 (human IgG1 monoclonal antibody) (antibody, V domains shown)
VH: EVQLVQSGPEVKKPGTSVKVACKASGFTFITPVSMQWVRQARGQRLEWLGWIVLASGNTDYAQKFQERVTIIRDMSTSTAYMELSRLRTEDTAVYYCAAPSCSRTICSDGFDIWGQGTMVTVSS
VL: EIVLTQSPGTLSLSPGERATLSCRASQSVSSSYLAWFQQKPGQAPRLLIFAASSRAIGIPARFSGSGSGTDFTLTISRLEPEDFAVYYCQQYSSSPWTFGQGTKVEIK
notes: also called bNAb ZCB11
A word on the Kd: it is the constant that tells how readily two partners part at equilibrium. Take B2: the Kd turned out to be 0.0575 nM.
